Target: the molecule itself
Test: native gel or EMSA; ICAR-purified α-his subunits alone (10 or 20 μg) on nondenaturing 4–15% or 5–10% gradient gels, 55 V, 4 °C; self-assembly into single and double α-rings

B1: Methanococcus maripaludis S2 20S proteasome α subunit, C-terminally hexahistidine-tagged, wild type (natural protein, UniProt Q6M0L9 1-259, looked up)
chain: MQQMVPASGYDRAITIFSPEGRLYQVEYAREAVRRGTTAVGIKCKDGVVLAVDRRITSKLIDVSSIEKIFQIDDHIVAATSGLVADARVLIDRARIEAQMNRVSYGEAITVEALAKKICDIKQAYTQHGGARPFGLALLITGIDRHSARLFETDPSGALIEYKATAIGSGRPIAMEVLESKYDENMTVSEGMELALYALSKTTEELKPENIDMAIIKDSGKLVEKISVDEIEKIVKAVYEKVKAEEEEAEKNKGEEDSE
notes: Proteasome subunit alpha of Methanococcus maripaludis S2, cloned by PCR from genomic DNA; expected Mr of α-his 29.5 kDa; Exists as single rings (SR), double rings (DR) and non-ring species; also called α-his; WT α; source: also Sephacryl S-300 fractions; also in lysate (lysate mixing) or coexpressed with β subunits; not shown: His6, C-terminal, kept
  binding result: binds
